Data on three substances can be found in article PMC5669276.

Test [1] has as its target Bluetongue virus (BTV) membrane penetration outer-layer protein VP5, as trimer on the virion (bluetongue virus (BTV)). Description: cryo-EM structure.
For test [2] the target is unchanged. As to the kind of experiment: […].
Test [3] addresses Bluetongue virus (BTV) receptor-binding outer-layer protein VP2, as trimer on the virion (bluetongue virus (BTV)). Description: cryo-EM structure.
Test [4] concerns the target Bluetongue virus (BTV) middle-layer core protein VP7, as trimer on the virion (bluetongue virus (BTV)). Description: cryo-EM structure.

In general, stoichiometry N refers to a count of units in the complex or per binding partner. As to “Bluetongue virus (BTV) membrane penetration outer-layer protein VP5, as trimer on the virion (natural protein)”, the stoichiometry N in test [1] and in test [2] was 3 throughout.

Turning to “Bluetongue virus (BTV) receptor-binding outer-layer protein VP2, as trimer on the virion (natural protein)”, the stoichiometry N in test [3] was determined as 3.

In turn, “Bluetongue virus (BTV) middle-layer core protein VP7, as trimer on the virion (natural protein)” returned a stoichiometry N in test [4] of 3.
